{"source": "patent US20250011438A1", "about": "(INSTITUTE FOR BASIC SCIENCE, published 2025)", "binders": {"B1": {"name": "humanized anti-Tie2 antibody 3H7H11G4 (antibody, V domains shown)", "VH": "QVQLVQSGAEVKKPGASVKVSCKASGYTFTSYWMNWVRQAPGQGLEWMGMIHPSDSETRLNQKFMDRVTMTRDTSTSTVYMELSSLRSEDTAVYYCARGLYGNSWGQGTLVTVSS", "VL": "DIQMTQSPSSLSASVGDRVTITCRASQDIGISLNWYQQKPGKAPKRLIYATSSLDSGVPSRFSGSGSGTEFTLTISSLQPEDFATYYCLQYASSPYTFGQGTKVEIK"}, "B2": {"name": "humanized anti-Tie2 antibody 3H7H21G4 (antibody, V domains shown)", "VH": "QVQLVQSGAEVKKPGASVKVSCKASGYTFTSYWMNWVRQRPGQGLEWIGMIHPSDSETRLNQKFMDRVTMTRDTSTSTVYMELSSLRSEDTAVYYCARGLYGNSWGQGTLVTVSS", "VL": "DIQMTQSPSSLSASVGDRVTITCRASQDIGISLNWYQQKPGKAPKRLIYATSSLDSGVPSRFSGSGSGTEFTLTISSLQPEDFATYYCLQYASSPYTFGQGTKVEIK"}, "B3": {"name": "humanized anti-Tie2 antibody 3H7H22G4 (antibody, V domains shown)", "VH": "QVQLVQSGAEVKKPGASVKVSCKASGYTFTSYWMNWVRQRPGQGLEWIGMIHPSDSETRLNQKFMDRVTMTRDTSTSTVYMELSSLRSEDTAVYYCARGLYGNSWGQGTLVTVSS", "VL": "DIQMTQSPSSLSASVGDRVTITCRASQDIGISLNWLQQEPGKAPKRLIYATSSLDSGVPKRFSGSGSGTEFTLTISSLQPEDFATYYCLQYASSPYTFGQGTKVEIK"}, "B4": {"name": "humanized anti-Tie2 antibody 3H7H12G4 (antibody, V domains shown)", "VH": "QVQLVQSGAEVKKPGASVKVSCKASGYTFTSYWMNWVRQAPGQGLEWMGMIHPSDSETRLNQKFMDRVTMTRDTSTSTVYMELSSLRSEDTAVYYCARGLYGNSWGQGTLVTVSS", "VL": "DIQMTQSPSSLSASVGDRVTITCRASQDIGISLNWLQQEPGKAPKRLIYATSSLDSGVPKRFSGSGSGTEFTLTISSLQPEDFATYYCLQYASSPYTFGQGTKVEIK"}, "B5": {"name": "mouse anti-Tie2 antibody 11C4 (antibody, V domains shown)", "VH": "QVQLQQPGADLVRPGASVTLSCKASGYSFTSYWMNWVKQRPGQGLEWIGMIHPSDSETRLNQKFKDKATLTVDKSSSTAYMQLRSPTSEDSAVYYCAGLTIYFDYWGQGTTLTVSS", "VL": "DIQMTQSPSSLSASLGERVSLTCRASQDIGISLNWLQQEPDGTIKRLIYATSSLDSGVPKRFSGSRSGSDYSLTISSLESEDFVDYYCLQYASSPYTFGGGTKLEIK"}, "B6": {"name": "mouse anti-Tie2 antibody 4A4 (antibody, V domains shown)", "VH": "QVQLQQPGAELVRPGASVKLSCKASGYSFTSYWMNWVKQRPGQGLEWIGMIHPSDSETRLNQKFKDKATLTVDKSSSTAYMQLSSPTSEDSAVYYCARGYYFDYWGQGTTLTVSS", "VL": "DIQMTQSPSSLSASLGERVSLTCRASQDIGISLNWLQQEPDGTIKRLIYATSSLDSGVPKRFTGSRSGSDYSLTISSLESEDFVDYYCLQYVSSPWTFGGGTKLEIK"}, "B7": {"name": "mouse anti-Tie2 antibody 3H7 (antibody, V domains shown)", "VH": "QVQLQQPGAELVRPGASVKLSCKASGYSFTSYWMNWVKQRPGQGLEWIGMIHPSDSETRLNQKFMDKATLTVDKSSSTAYMQLSSPTSEDSAVYYCARGLYGNSWGQGTLVTVSA", "VL": "DIQMTQSPSSLSASLGERVSLTCRASQDIGISLNWLQQEPDGTIKRLIYATSSLDSGVPKRFSGSRSGSDYSLTISSLESEDFVDYYCLQYASSPYTFGGGTKLEIK"}, "B8": {"name": "mouse anti-Tie2 antibody 3B2 (antibody, V domains shown)", "VH": "QVQLQQPGAELVRPGASVKLSCKASGYSFTSYWMNWVKQRPGQGLEWIGMIHPSDSETRLNQKFKDKATLTVDKSSSTAYLQLSSPTSEDSAVYYCARGNYFDCWGQGTTLTVSS", "VL": "DIQMTQSPSSLSASLGERVSLTCRASQDIGISLNWLQQEPDGTIKRLIYATSILDSGVPKRFSGSRSGSDYSLTISSLESEDFVDYYCLQYASSPWTFGGGTKLEIK"}, "B9": {"name": "mouse anti-Tie2 antibody 3E12 (antibody, V domains shown)", "VH": "QVQLQQPGADLVRPGASVKLSCKASGYSFTSYWMNWVKQRPGQGLEWIGMIHPSDSETRLNQKFKDKATLTVDKSSSTAYMQLSSPTSEDSAVYYCAKGYYFGYWGQGTTLTVSS", "VL": "DIQMTQSPSSLSASLGERVSLTCRASQDIGISLNWLQQEPDGTIKRLIYATSNLDSGVPKRFSGSRSGSDYSLTISSLESEDFVDYYCLQYASSPPTFGGGTKLEIK"}}, "key": {"[1]": {"target": "T1, recombinant human Tie2 Ig3-FNIII(1-3) domains (human, UniProt Q02763 349-738)", "T1 construct": "also called hTie2-Ig3-FNIII(1-3)", "T1 sequence (Q02763 349-738 limits assumed)": "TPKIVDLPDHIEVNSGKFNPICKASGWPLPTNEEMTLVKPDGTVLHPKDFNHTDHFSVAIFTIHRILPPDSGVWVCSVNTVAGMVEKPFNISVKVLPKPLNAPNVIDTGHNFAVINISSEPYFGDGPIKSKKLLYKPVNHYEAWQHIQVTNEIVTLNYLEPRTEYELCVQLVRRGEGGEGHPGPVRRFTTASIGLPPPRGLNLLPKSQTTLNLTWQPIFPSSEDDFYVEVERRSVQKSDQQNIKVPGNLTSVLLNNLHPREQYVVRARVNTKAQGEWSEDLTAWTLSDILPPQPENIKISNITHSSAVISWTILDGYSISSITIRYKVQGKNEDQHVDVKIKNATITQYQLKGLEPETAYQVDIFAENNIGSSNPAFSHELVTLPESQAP", "experiment": "BLI (Octet), antibody immobilised on AR2G sensor, recombinant hTie2 as analyte, 1:1 global fit", "experimental": "(§1) The affinity of humanized anti-Tie2 antibody against hTie2 was measured using Octet® system (ForteBio) where Black 96-well plates (96 well F-type black plates, Greiner) were used. […] After the hydration, humanized anti-Tie2 antibody was diluted in 10 mM sodium acetate, pH 6.0 buffer at a concentration of 10 μg/ml, fixed on AR2G biosensor, and blocked with 1M ethanolamine. The recombinant hTie2 was diluted to 50, 25, 12.5, 6.25, 3.125, and 0 nM with 1× kinetic buffer, and subjected to association for 300 sec and dissociation for 900 sec."}, "[2]": {"target": "T2, human Tie2 (hTie2), as immobilised in the Octet assay of Example 1.4 (human, UniProt Q02763 349-738, limits assumed)", "T2 construct": "The protein used was probably a soluble recombinant form, possibly hTie2-Ig3-FNIII(1-3)", "T2 sequence (Q02763 349-738 limits assumed)": "as above", "experiment": "BLI (Octet), hTie2 immobilised on AR2G sensor, antibody as analyte, 1:1 global fit", "experimental": "as §1, with “of mouse monoclonal” for “of humanized anti-Tie2”, “hydration, hTie2” for “hydration, humanized anti-Tie2 antibody”, “The mouse monoclonal anti-Tie2 antibodies were” for “The recombinant hTie2 was”, “300 seconds” for “300 sec”, “900 seconds.” for “900 sec.”"}, "[3]": {"target": "T1, recombinant human Tie2 Ig3-FNIII(1-3) …", "experiment": "stated in the HDX-MS sample preparation; how it was measured is not given; HDX-MS sample preparation; hTie2-Ig3-FNIII(1-3) fragment in deuterium labeling buffer; assay not given"}}}
{"binder": "B1", "values": [{"measurement": "Kd", "setting": "[1]", "value": 7.47, "unit": "nM"}, {"measurement": "koff", "setting": "[1]", "value": 0.000467, "unit": "s⁻¹"}, {"measurement": "kon", "setting": "[1]", "value": 62600, "unit": "M⁻¹ s⁻¹"}]}
{"binder": "B2", "values": [{"measurement": "Kd", "setting": "[1]", "value": 6.59, "unit": "nM"}, {"measurement": "koff", "setting": "[1]", "value": 0.000517, "unit": "s⁻¹"}, {"measurement": "kon", "setting": "[1]", "value": 78500, "unit": "M⁻¹ s⁻¹"}]}
{"binder": "B3", "values": [{"measurement": "Kd", "setting": "[1]", "value": 39.7, "unit": "nM"}, {"measurement": "koff", "setting": "[1]", "value": 0.000656, "unit": "s⁻¹"}, {"measurement": "kon", "setting": "[1]", "value": 16500, "unit": "M⁻¹ s⁻¹"}]}
{"binder": "B4", "values": [{"measurement": "Kd", "setting": "[1]", "value": 96.5, "unit": "nM"}, {"measurement": "koff", "setting": "[1]", "value": 0.000999, "unit": "s⁻¹"}, {"measurement": "kon", "setting": "[1]", "value": 10400, "unit": "M⁻¹ s⁻¹"}]}
{"binder": "B5", "values": [{"measurement": "Kd", "setting": "[2]", "value": 0.215, "unit": "nM"}, {"measurement": "koff", "setting": "[2]", "value": 0.000327, "unit": "s⁻¹"}, {"measurement": "kon", "setting": "[2]", "value": "1.52e+06", "unit": "M⁻¹ s⁻¹"}]}
{"binder": "B6", "values": [{"measurement": "Kd", "setting": "[2]", "value": 0.105, "unit": "nM"}, {"measurement": "koff", "setting": "[2]", "value": "5.53e-05", "unit": "s⁻¹"}, {"measurement": "kon", "setting": "[2]", "value": 525000, "unit": "M⁻¹ s⁻¹"}]}
{"binder": "B7", "values": [{"measurement": "Kd", "setting": "[1]", "value": 0.0269, "unit": "nM"}, {"measurement": "koff", "setting": "[1]", "value": "1.05e-05", "unit": "s⁻¹"}, {"measurement": "kon", "setting": "[1]", "value": 558000, "unit": "M⁻¹ s⁻¹"}, {"measurement": "Kd", "setting": "[3]", "value": 25, "unit": "nM"}, {"measurement": "Kd", "setting": "[2]", "value": 0.0556, "unit": "nM"}, {"measurement": "koff", "setting": "[2]", "value": "2.13e-05", "unit": "s⁻¹"}, {"measurement": "kon", "setting": "[2]", "value": 384000, "unit": "M⁻¹ s⁻¹"}]}
{"binder": "B8", "values": [{"measurement": "Kd", "setting": "[2]", "value": "< 0.001", "unit": "nM"}, {"measurement": "koff", "setting": "[2]", "value": "< 1e-07", "unit": "s⁻¹"}, {"measurement": "kon", "setting": "[2]", "value": 444000, "unit": "M⁻¹ s⁻¹"}]}
{"binder": "B9", "values": [{"measurement": "Kd", "setting": "[2]", "value": 0.251, "unit": "nM"}, {"measurement": "koff", "setting": "[2]", "value": "9.12e-05", "unit": "s⁻¹"}, {"measurement": "kon", "setting": "[2]", "value": 363000, "unit": "M⁻¹ s⁻¹"}]}
